Assay results: PMC3315643

Tests used:
purified protein [1] = substrate: O=C1C=CC(=O)C(Cl)=C1; assay: purified protein; conditions: pH 5.0; 30.0 °C
purified protein [2] = substrate: O=C1C=CC(=O)C=C1; assay: purified protein; conditions: pH 4.0; 30.0 °C

B1: recPDH1 (recombinant pyranose dehydrogenase PDH1) (Macropsalliota meleagris) (protein)
chain: AITYQHPDDLPSGVDYDFIVAGGGTAGLVVASRLSENSNWKVLVIEAGPSNKDAFVTRVPGLASTLGAGSPIDWNYTTIPQDGLDGRSLDYPRAKILGGCSTHNGMVYTRGSKDDWNSWAGIIGDQGLGWDSILPAIKKAEKFTQDFTDQSVKGHIDPSVHGFDGKLSVSAAYSNISFNDLLFETTKELNAEFPFKLDMNDGKPIGLGWTQYTIDNHAERSSSATSYLESTGDNVHVLVNTLVTRVLSASGNGTDFRKVEFAVDANSPKKQLEAKKEVIVAGGVIASPQILMNSGIGERKVLQAVGIDTLIDNPSVGKNLSDQGATSVMFDTTLPSTDFDVDAALTEWTNSHTGPLARGARLNHLTFVRLPDDKLNGQDPSSGKNSPHIEFQFAQITPQVPTLGVPKQAPLPAANSYRLLLQLAVVNLYSISRGSISLSDNNPFTYPLIDLNMFKEDIDIAILREGIRSAGRMFSSKAFKNSVNKFVYPPADATSDEDLDAFLRSSTFSYVHGVGTLSMSPKGASWGVVNPDFKVKGTSGLRVVDASVIPHAPAAHTQLPVYAFAEYASALIAKSYN
Km (purified protein [1]): 620 ± 110 µM
kcat/Km (purified protein [1]): 20900 M⁻¹ s⁻¹
Km (purified protein [2]): 1380 ± 280 µM
kcat/Km (purified protein [2]): 54400 M⁻¹ s⁻¹
